Assay results from the supplement of paper PMC9170038.

Test system: MS2 coat protein
Assay: apparent KD of MS2 coat protein; designed switch direction (-1 OFF switch, 1 ON switch): -1; higher = weaker reporter binding
How it was run: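 Designed RNA switches were transcribed on Illumina chips by stalled E. coli RNA polymerase and titrated with SNAP-549-labelled MS2 coat protein from 0.7 or 1.5 nM, doubling to 3 µM. Step length ran from 0.8–1.5 h at the lowest concentration to 10–20 min at the highest. The apparent KD is the median over clusters for each design, from curve-fitted normalised cluster fluorescence.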

[1] = Eterna round: R95, input ligand: FMN 200 uM
[2] = Eterna round: R95, input ligand: microRNA oligo, concentration not stated
[3] = Eterna round: R95, input ligand: none
[4] = input ligand: microRNA oligo, concentration not stated

Sequence | apparent KD of MS2 coat protein (input ligand: FMN 200 uM) | apparent KD of MS2 coat protein (input ligand: none) | apparent KD of MS2 coat protein [1] | apparent KD of MS2 coat protein [2] | apparent KD of MS2 coat protein [3] | apparent KD of MS2 coat protein [4]
GCAGAUCACGUGAGGAUAUCGUCUACCUCGGUAGUCGAGAAGGCACAUGAGGAUCACCCAUGUGAGUGAUCUGC [Omei Ex4B B2] (Eterna round: R97, puzzle: Brourd's mod of Exclusion 4) | 13.6 nM | 17.6 nM | – | – | – | –
AGAGAGUCAGGAUAUCGAAGGGAGAGGAAAGGAGAGAGGGACGAGAAGGGACAUGAGGAUCACCCAUGUAGGUG [JR_Exclusion4)Sub016] (puzzle: Exclusion 4) | – | – | 233 nM | 200 nM | 432 nM | –
AUAUUGUGAGGAUAUGAUCUUAGUAUCGAAAGAUACUAAGUUCAGAAGGCACAUGAGGAUCACCCAUGUUUCUC [Long static hairpin v14] (Eterna round: R97, puzzle: Exclusion 4) | 982 nM | 70.6 nM | – | – | – | –
AUGCUCAUAGGAUAUAGAUUGAUUCACAUGAGGAUCACCCAUGUAAACUCUACUUUUUAACUAGAAGGAUGUUUUU [JR_E5_Sub018] (puzzle: Exclusion 5) | – | – | – | 25.3 nM | – | –
UCGCUGCGAGGAUAUACAUGAGGAUCACCCAUGUGCGGGUCCGGGUCUUCGUCCAUUAGUAGAAGGCGCAGUGA [JL Laongeedie mod 4] (puzzle: Exclusion 3) | – | – | – | 99.9 nM | – | –
UCUUUAGGUGUUAGGAUAUACCUGCGCAAAGUUAGGUAGAAGGGACAUGAGGAUCACCCAUGUGCGUCCACAAU [Eternabot (L1) Solution 29] (Eterna round: R97, puzzle: Brourd's mod of Exclusion 4) | 30.4 nM | 27.5 nM | – | – | – | –
GCUUCGGCAGGAUAUACAAGCUUCGGCUGAAAAGUUGAAGUACAUGAGGAUCACCCAUGUAGAAGGGUUGAAGU [-25.7, -24.2 kcal, A 32% 3 bis, 3 bis] (Eterna round: R97, puzzle: Exclusion 2) | 45.6 nM | 60.1 nM | – | – | – | –
GUAAAAUAAGCUUAUUUACACAUGAGGAUCACCCAUGUAUUGGACGGACUCCUGACCUCAAUUAUAUGCUCGUAUCG [Eternabot (L1) Solution 41] (Eterna round: R97, puzzle: Sensor, turn-off variant 1) | 77.6 nM | 79.5 nM | – | – | – | –
CUUGUUUAUGUAGGAUAUGCCUGGCGUGCCUUUGCAGAAGGACAUGAGGAUCACCCAUGUAACAUGAGGCUCACCCAUGUCGCU [salish99_ExNG1_r04_106] (Eterna round: R96, puzzle: Exclusion NG 1) | 434 nM | 292 nM | – | – | – | 224 nM
UGUUGUUCAGGAUAUGGUGUGUUUUACAUGAGGAUCACCCAUGUGGGUCCUGGUUUGGCGUCAGAAGGGAAUGUUG [salish99_ex5_r4_117] (Eterna round: R97, puzzle: Exclusion 5) | 788 nM | 1040 nM | – | – | – | –
AGAUCUAGGACAGGAUAUACCGAUGGCUUCAUCGAAGAUGAAGCCAUCACAUGAGGAUCACCCAUGUAGAAGGGUCCUAGAUCA [Omei Exc(NG) 2Av9] (Eterna round: R96, puzzle: Exclusion NG 2) | 11.5 nM | 13.7 nM | – | – | – | 9.95 nM
GAGAAGGUAGGAUAUACGAAGAAAGAGGGUAGGAAGAAUACACAUGAGGAUCACCCAUGUAGAAGGACCAAGAG [Mat - Exclusion 2 - Mod of my Tesla design - D47] (puzzle: Exclusion 2) | – | – | 32.9 nM | 17.8 nM | 23 nM | –
ACAUGAGGAUCACCCAUGUUUGGCUGGUUCUCUCCGGCUGUCGAGGAUAUAGUCCGGUAUCCGCGCUAGAAGGUGAGGGCUGGC [Aenatbe mod 6] (Eterna round: R96, puzzle: Exclusion NG 3) | 17 nM | 16.1 nM | – | – | – | 12.3 nM
UAGCAACGAGGAUAUGCGGGCCUGAACCUAAAGUCGACCUUACAUGAGGAUCACCCAUGUAGAAGGCGUAGUGU [Eternabot (L2) Solution 71] (Eterna round: R97, puzzle: Exclusion 2) | 16.8 nM | 18.3 nM | – | – | – | –
GAGCAGGAAGGAUAUACAUGAGGAUCACCCAUGUACCAUCAAGGCUUUGAUUUUCACGGUAGAAGGUCCCAAUA [Sotece] (puzzle: Exclusion 3) | – | – | – | 34.8 nM | – | –
UGGCUACCUUGGUGCUCUACAAGCUUUUUGCUCGUUUUAACAUGAGGAUCACCCAUGUCUAGUGGAUCUGAUCGGGC [JL ViennaUCT Isreen mod 1] (puzzle: Sensor v3, turn-off variant 2) | – | – | 62.1 nM | 139 nM | 62.7 nM | –
CGGUGCUGAGGAUAUACAUGAGGAUCACCCAUGUGUUCCAGCUAGGUGACUGGCAAAUGUAGAAGGCGGUACUG [JL-ex3-3.36 Brourd mod] (puzzle: Exclusion 3) | – | – | 40.7 nM | 77.7 nM | 105 nM | –
CGGUCCUGAGUGAGGAUAUUGUCAGGCGAAGCCUGCAAGAAGGUACUUGAGGAUCACCCAAGUACGCUCUUGGC [Estimama] (Eterna round: R97, puzzle: Brourd's mod of Exclusion 4) | 21.2 nM | 16.8 nM | – | – | – | –
UCAAGCUUUAAGCGCGUGAACAUGAGGAUCACCCAUGUAUUUCGGGUUUUGGUUUUUUGUAUGGGUUCUUGUCUUAU [JR_SWV3TOV1_Sub096] (puzzle: Sensor v3, turn-off variant 1) | – | – | 39.2 nM | 19.2 nM | 41.8 nM | –
GGAUCGUAUGUCAGGAUAUACCACUGGAUACAGUGGUAGAAGGGACAUGAGGAUCACCCAUGUCCUAUCGAUCC [Fiskers BMX 4 - 51] (puzzle: Brourd's mod of Exclusion 4) | – | – | – | 12 nM | – | –
GGUAGCUGAGGAUAUGCAGACGACCCUCAGUGCUGGCUUGCACAUGAGGAUCACCCAUGUAGAAGGCAGAAGCU [Eternabot (L2) Solution 5] (Eterna round: R97, puzzle: Exclusion 2) | 56 nM | 57.5 nM | – | – | – | –
AACGUGUAAGGAUAUCUGCUUAUGCUCGGCAAUGCACCGAUAGAGAAGGUACAUGAGGAUCACCCAUGUUCCAA [EX4 A.16] (Eterna round: R97, puzzle: Exclusion 4) | 16.7 nM | 15.8 nM | – | – | – | –
UGGUAACAUGAGGAUCACCCAUGUCAGGAUAUCAGGAAGAAGAGAGGAGAGUAGAAGAUGAGAAGGGACUAUAU [Excluse me! 10 - Jieux - Exclusion 1] (puzzle: Exclusion 1) | – | – | 20.2 nM | 24.5 nM | 27.5 nM | –
CUCGUGUGAGGAUAUUCACACCCGUCAAAACAACGGACAAAGAAGAAGGCACAUGAGGAUCACCCAUGUAAAGA [Usenisor] (Eterna round: R97, puzzle: Exclusion 4) | 92.1 nM | 106 nM | – | – | – | –
GAUGCUUCGGCAUCUACAAGCUUUUUGCUCGUCUUAUUAACAUGAGGAUCACCCAUGUCAAAGAGACCUCAUGUAUU [Sensor v3 - turn-off variant 2 - 4] (puzzle: Sensor v3, turn-off variant 2) | – | – | 314 nM | 18.9 nM | 381 nM | –
